From publication PMC4551920
Where two headings read alike, the source gives them in different places.

What was measured:
CUGBP1-Flag [1] = target: T1, CUGBP1-Flag (UniProt Q92879 1-486); test: EMSA
CUGBP1-Flag [2] = target: T1, CUGBP1-Flag; test: EMSA; remark: listed apart in the source

T1 sequence (Q92879 whole entry): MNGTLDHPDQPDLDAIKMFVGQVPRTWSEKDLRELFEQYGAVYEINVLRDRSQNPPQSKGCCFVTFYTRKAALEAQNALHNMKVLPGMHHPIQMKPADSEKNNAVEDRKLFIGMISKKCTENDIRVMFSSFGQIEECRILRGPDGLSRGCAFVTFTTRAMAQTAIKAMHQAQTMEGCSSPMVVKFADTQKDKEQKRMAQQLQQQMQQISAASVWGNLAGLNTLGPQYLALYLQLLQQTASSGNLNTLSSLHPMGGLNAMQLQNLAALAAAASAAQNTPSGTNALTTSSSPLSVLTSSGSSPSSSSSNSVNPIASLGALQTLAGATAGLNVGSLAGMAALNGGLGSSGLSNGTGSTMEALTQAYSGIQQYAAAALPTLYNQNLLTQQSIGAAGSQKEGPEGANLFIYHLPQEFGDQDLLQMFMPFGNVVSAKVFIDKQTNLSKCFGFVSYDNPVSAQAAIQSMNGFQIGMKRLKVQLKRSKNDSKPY

Row | Binder | binding result (CUGBP1-Flag [1]) | binding result (CUGBP1-Flag [2])
1 | UAGCAGCACGUAAAUAUUGGCG (ssRNA) [miR-16] | no binding | –
2 | UGGAGUGUGACAAUGGUGUUUGA (ssRNA) [miR-122 23-nt (3'-a)] | – | binds
3 | UGGAGUGUGACAAUGGCCCCCC (ssRNA) [miR-122 17-22C] | – | no binding
4 | UGGAGUGUGACAAUGGUGUUUGAAAAA (ssRNA) [miR-122 27-nt (3'-a5)] | – | binds
